In the Human Domainome abundance scans (Beltran et al. 2025):
± gives the uncertainty stated by the source.

B1: Proto-oncogene vav, residues 782 to 842; numbered along this chain, P15498 (parent)
chain: KYFGTAKARYDFCARDRSELSLKEGDIIKILNKKGQQGWWRGEIYGRVGWFPANYVEEDYS

Variants of: B1
Assay: abundance fitness (aPCA) (normalised: wild type 0, dead -1); higher = more abundant; growth selection in yeast, the domain comes from the species named
Conditions: Homo sapiens

Row | Variant | abundance fitness
1 | KYFGTAKARYDFCARDRSELSLKEGTIIKILNKKGQQGWWRGEIYGRVGWFPANYVEEDYS [D26T] | -0.777 ± 0.21
2 | KYFGTAKARYDFCARDRSELSLKEGNIIKILNKKGQQGWWRGEIYGRVGWFPANYVEEDYS [D26N] | -0.45 ± 0.1
3 | KYFGTAKARYDFCARDRSELSLKEGVIIKILNKKGQQGWWRGEIYGRVGWFPANYVEEDYS [D26V] | -0.559 ± 0.072
4 | KYFGTAKARYDFCARDRSELSLKEGAIIKILNKKGQQGWWRGEIYGRVGWFPANYVEEDYS [D26A] | -0.493 ± 0.1
5 | KYFGTAKARYDFCARDRSELSLKEGEIIKILNKKGQQGWWRGEIYGRVGWFPANYVEEDYS [D26E] | -0.172 ± 0.074
6 | KYFGTAKARYDFCARDRSELSLKEGGIIKILNKKGQQGWWRGEIYGRVGWFPANYVEEDYS [D26G] | -0.948 ± 0.17
7 | KYFGTAKARYDFCARDRSELSLKEGMIIKILNKKGQQGWWRGEIYGRVGWFPANYVEEDYS [D26M] | -0.401 ± 0.14
8 | KYFGTAKARYDFCARDRSELSLKEGIIIKILNKKGQQGWWRGEIYGRVGWFPANYVEEDYS [D26I] | -0.663 ± 0.29
9 | KYFGTAKARYDFCARDRSELSLKEGQIIKILNKKGQQGWWRGEIYGRVGWFPANYVEEDYS [D26Q] | -0.278 ± 0.13
10 | KYFGTAKARYDFCARDRSELSLKEGYIIKILNKKGQQGWWRGEIYGRVGWFPANYVEEDYS [D26Y] | -0.472 ± 0.18
11 | KYFGTAKARYDFCARDRSELSLKEGLIIKILNKKGQQGWWRGEIYGRVGWFPANYVEEDYS [D26L] | -0.814 ± 0.13
12 | KYFGTAKARYDFCARDRSELSLKEGCIIKILNKKGQQGWWRGEIYGRVGWFPANYVEEDYS [D26C] | -0.737 ± 0.26
13 | KYFGTAKARYDFCARDRSELSLKEGRIIKILNKKGQQGWWRGEIYGRVGWFPANYVEEDYS [D26R] | -0.996 ± 0.19
14 | KYFGTAKARYDFCARDRSELSLKEGPIIKILNKKGQQGWWRGEIYGRVGWFPANYVEEDYS [D26P] | -1.15 ± 0.41
15 | KYFGTAKARYDFCARDRSELSLKEGHIIKILNKKGQQGWWRGEIYGRVGWFPANYVEEDYS [D26H] | -0.941 ± 0.31
16 | KYFGTAKARYDFCARDRSELSLKEGWIIKILNKKGQQGWWRGEIYGRVGWFPANYVEEDYS [D26W] | -0.8 ± 0.21
17 | KYFGTAKARYDFCARDRSELSLKEGKIIKILNKKGQQGWWRGEIYGRVGWFPANYVEEDYS [D26K] | -0.964 ± 0.3
18 | KYFGTAKARYDFCARDRSELSLKEGDIDKILNKKGQQGWWRGEIYGRVGWFPANYVEEDYS [I28D] | -0.944 ± 0.35
19 | KYFGTAKARYDFCARDRSELSLKEGDIVKILNKKGQQGWWRGEIYGRVGWFPANYVEEDYS [I28V] | 0.039 ± 0.06
20 | KYFGTAKARYDFCARDRSELSLKEGDIGKILNKKGQQGWWRGEIYGRVGWFPANYVEEDYS [I28G] | -0.935 ± 0.2
21 | KYFGTAKARYDFCARDRSELSLKEGDIPKILNKKGQQGWWRGEIYGRVGWFPANYVEEDYS [I28P] | -0.811 ± 0.38
22 | KYFGTAKARYDFCARDRSELSLKEGDICKILNKKGQQGWWRGEIYGRVGWFPANYVEEDYS [I28C] | -0.436 ± 0.21

Row | Variant | abundance fitness
23 | KYFGTAKARYDFCARDRSELSLKEGDISKILNKKGQQGWWRGEIYGRVGWFPANYVEEDYS [I28S] | -0.792 ± 0.29
24 | KYFGTAKARYDFCARDRSELSLKEGDIMKILNKKGQQGWWRGEIYGRVGWFPANYVEEDYS [I28M] | -0.593 ± 0.22
25 | KYFGTAKARYDFCARDRSELSLKEGDIWKILNKKGQQGWWRGEIYGRVGWFPANYVEEDYS [I28W] | -0.591 ± 0.13
26 | KYFGTAKARYDFCARDRSELSLKEGDIAKILNKKGQQGWWRGEIYGRVGWFPANYVEEDYS [I28A] | -0.662 ± 0.17
27 | KYFGTAKARYDFCARDRSELSLKEGDITKILNKKGQQGWWRGEIYGRVGWFPANYVEEDYS [I28T] | -0.315 ± 0.17
28 | KYFGTAKARYDFCARDRSELSLKEGDIRKILNKKGQQGWWRGEIYGRVGWFPANYVEEDYS [I28R] | -1.11 ± 0.28
29 | KYFGTAKARYDFCARDRSELSLKEGDIFKILNKKGQQGWWRGEIYGRVGWFPANYVEEDYS [I28F] | -0.816 ± 0.29
30 | KYFGTAKARYDFCARDRSELSLKEGDIQKILNKKGQQGWWRGEIYGRVGWFPANYVEEDYS [I28Q] | -0.834 ± 0.37
31 | KYFGTAKARYDFCARDRSELSLKEGDILKILNKKGQQGWWRGEIYGRVGWFPANYVEEDYS [I28L] | -0.412 ± 0.11
32 | KYFGTAKARYDFCARDRSELSLKEGDRIKILNKKGQQGWWRGEIYGRVGWFPANYVEEDYS [I27R] | -0.21 ± 0.076
33 | KYFGTAKARYDFCARDRSELSLKEGDDIKILNKKGQQGWWRGEIYGRVGWFPANYVEEDYS [I27D] | -0.151 ± 0.15
34 | KYFGTAKARYDFCARDRSELSLKEGDHIKILNKKGQQGWWRGEIYGRVGWFPANYVEEDYS [I27H] | -0.14 ± 0.14
35 | KYFGTAKARYDFCARDRSELSLKEGDFIKILNKKGQQGWWRGEIYGRVGWFPANYVEEDYS [I27F] | -0.44 ± 0.23
36 | KYFGTAKARYDFCARDRSELSLKEGDAIKILNKKGQQGWWRGEIYGRVGWFPANYVEEDYS [I27A] | -0.331 ± 0.091
37 | KYFGTAKARYDFCARDRSELSLKEGDGIKILNKKGQQGWWRGEIYGRVGWFPANYVEEDYS [I27G] | -0.704 ± 0.093
38 | KYFGTAKARYDFCARDRSELSLKEGDLIKILNKKGQQGWWRGEIYGRVGWFPANYVEEDYS [I27L] | -0.198 ± 0.076
39 | KYFGTAKARYDFCARDRSELSLKEGDMIKILNKKGQQGWWRGEIYGRVGWFPANYVEEDYS [I27M] | -0.192 ± 0.12
40 | KYFGTAKARYDFCARDRSELSLKEGDSIKILNKKGQQGWWRGEIYGRVGWFPANYVEEDYS [I27S] | -0.276 ± 0.079
41 | KYFGTAKARYDFCARDRSELSLKEGDEIKILNKKGQQGWWRGEIYGRVGWFPANYVEEDYS [I27E] | -0.154 ± 0.091
42 | KYFGTAKARYDFCARDRSELSLKEGDCIKILNKKGQQGWWRGEIYGRVGWFPANYVEEDYS [I27C] | -0.194 ± 0.085
43 | KYFGTAKARYDFCARDRSELSLKEGDPIKILNKKGQQGWWRGEIYGRVGWFPANYVEEDYS [I27P] | -0.557 ± 0.23
